Results reported in patent US20260070975A1 (SANTA ANA BIO, published 2026).
Positions count from the first letter of the chain named.

T1: siglec 5 expressed on HEK293 cells (UniProt O15389 17-551, limits assumed)
T1 construct: whole, on cells; also called Siglec-6 family member
T1 sequence (looked up): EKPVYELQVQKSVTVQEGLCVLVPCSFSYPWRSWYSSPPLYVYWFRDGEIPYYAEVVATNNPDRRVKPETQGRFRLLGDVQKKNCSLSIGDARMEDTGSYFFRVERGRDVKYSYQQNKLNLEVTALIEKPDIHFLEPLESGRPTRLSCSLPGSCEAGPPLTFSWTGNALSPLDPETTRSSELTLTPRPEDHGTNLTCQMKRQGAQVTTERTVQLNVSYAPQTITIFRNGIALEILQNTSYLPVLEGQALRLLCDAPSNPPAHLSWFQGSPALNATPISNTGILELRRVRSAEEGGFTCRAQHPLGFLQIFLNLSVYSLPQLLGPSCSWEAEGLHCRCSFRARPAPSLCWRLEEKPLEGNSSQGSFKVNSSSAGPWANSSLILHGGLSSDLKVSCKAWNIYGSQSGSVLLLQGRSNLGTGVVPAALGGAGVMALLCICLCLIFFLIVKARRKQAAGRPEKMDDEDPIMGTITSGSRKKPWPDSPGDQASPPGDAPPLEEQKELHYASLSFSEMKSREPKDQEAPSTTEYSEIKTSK

T2: siglec 11 expressed on HEK293 cells (UniProt Q96RL6 28-698, limits assumed)
T2 construct: whole, on cells; also called Siglec-6 family member
T2 sequence (looked up): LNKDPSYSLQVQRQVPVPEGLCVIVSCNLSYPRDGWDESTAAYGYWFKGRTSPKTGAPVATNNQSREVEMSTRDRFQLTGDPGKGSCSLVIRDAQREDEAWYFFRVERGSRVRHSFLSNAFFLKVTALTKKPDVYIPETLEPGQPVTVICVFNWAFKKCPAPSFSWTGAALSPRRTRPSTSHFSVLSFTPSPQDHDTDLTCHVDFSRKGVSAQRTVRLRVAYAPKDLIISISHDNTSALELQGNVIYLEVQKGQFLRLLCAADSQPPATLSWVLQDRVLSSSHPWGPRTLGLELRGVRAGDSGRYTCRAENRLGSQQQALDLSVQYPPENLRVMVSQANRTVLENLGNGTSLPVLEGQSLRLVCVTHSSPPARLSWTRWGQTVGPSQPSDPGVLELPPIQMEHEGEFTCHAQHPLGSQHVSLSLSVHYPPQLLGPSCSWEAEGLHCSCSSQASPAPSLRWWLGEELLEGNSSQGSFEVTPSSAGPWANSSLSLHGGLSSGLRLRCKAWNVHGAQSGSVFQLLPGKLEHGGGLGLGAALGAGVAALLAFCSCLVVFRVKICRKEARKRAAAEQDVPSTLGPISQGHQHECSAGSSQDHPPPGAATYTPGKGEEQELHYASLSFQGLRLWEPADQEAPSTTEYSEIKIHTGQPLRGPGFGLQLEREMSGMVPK

T3: siglec 2 expressed on HEK293 cells (UniProt P20273 20-847, limits assumed)
T3 construct: whole, on cells; also called Siglec-6 family member
T3 sequence (looked up): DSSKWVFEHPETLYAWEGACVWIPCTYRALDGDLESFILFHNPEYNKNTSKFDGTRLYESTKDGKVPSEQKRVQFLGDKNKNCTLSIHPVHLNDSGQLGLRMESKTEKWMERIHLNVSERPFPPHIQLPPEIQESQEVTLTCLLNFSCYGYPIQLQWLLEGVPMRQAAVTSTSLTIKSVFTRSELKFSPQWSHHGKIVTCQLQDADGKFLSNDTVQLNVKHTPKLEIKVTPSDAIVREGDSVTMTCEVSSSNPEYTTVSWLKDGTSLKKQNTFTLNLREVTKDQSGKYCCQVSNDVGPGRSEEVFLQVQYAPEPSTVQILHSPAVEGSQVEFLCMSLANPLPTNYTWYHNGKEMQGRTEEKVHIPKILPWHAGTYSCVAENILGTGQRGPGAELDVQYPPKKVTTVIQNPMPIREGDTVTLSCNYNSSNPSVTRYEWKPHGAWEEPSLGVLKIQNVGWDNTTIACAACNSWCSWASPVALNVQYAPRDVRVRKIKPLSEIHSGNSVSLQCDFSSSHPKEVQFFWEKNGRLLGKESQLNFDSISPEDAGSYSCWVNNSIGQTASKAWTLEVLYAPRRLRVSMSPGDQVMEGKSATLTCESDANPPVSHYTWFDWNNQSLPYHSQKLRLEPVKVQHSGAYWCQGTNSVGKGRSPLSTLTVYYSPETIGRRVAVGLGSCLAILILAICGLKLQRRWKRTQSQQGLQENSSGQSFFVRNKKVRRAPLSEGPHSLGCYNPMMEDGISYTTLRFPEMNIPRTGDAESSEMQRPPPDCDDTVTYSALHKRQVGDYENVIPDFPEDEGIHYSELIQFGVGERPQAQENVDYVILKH

B1: hRND-2 (antibody, human IgG1, kappa, V domains shown)
VH: QVQLVQSGAEVKKPGASVKVSCKASGYAFTSYWMHWVRQAPGQRLEWMGEIYPTNGGTTYAQKFQGRVTMTVDKSTSTAYMELSRLRSDDTAVYYCTIEDFYAMDYWGQGTTVTVSS
VL: DIVMTQTPLSLSVTPGQPASISCKSSQSLLDSDGKTSLNWLLQKPGQSPQRLIYLVSKLDSGVPDRFSGSGSGTDFTLKISRVEAEDVGVYYCWQGTHFPYTFGQGTKLEIKR
notes: also called humanized RND-2; hRND-H2 / hRND-L3; copies: 2 + 2
B2: hRND-3 (antibody, human IgG1, kappa, V domains shown)
VH: B1 VH with V20L, M48I, V68A, M70L
VL: B1 VL
notes: also called humanized RND-3; hRND-H3 / hRND-L3; copies: 2 + 2
B3: hRND-4 (antibody, human IgG1, kappa, V domains shown)
VH: B1 VH with A61N, Q62E, Q65K, G66R
VL: B1 VL
notes: also called humanized RND-4; hRND-H2b / hRND-L3; copies: 2 + 2
B4: hRND-5 (antibody, human IgG1, kappa, V domains shown)
VH: B1 VH with V20L, M48I, A61N, Q62E, Q65K, G66R, V68A, M70L
VL: B1 VL
notes: also called humanized RND-5; hRND-H3b / hRND-L3; copies: 2 + 2

biological target: T1, siglec 5 expressed on HEK293 cells; test: flow cytometry on HEK293 cells expressing the target
Protocol: (§1) Cultured HEK293 cells expressing human siglec-6, cynomolgus siglec-6, or siglec 6 family members were resuspended in FACS Blocking Buffer (PBS+10% normal human serum) for 30 minutes. Following washing, cells were incubated with siglec-6 antibodies in FACS Buffer (PBS+0.5% bovine serum albumin+0.09% sodium azide) and incubated at 4° C. for 30 minutes, washed and incubated with PE-labeled anti-human secondary antibody. Cells were incubated at 4° C. for 30 minutes in the dark. Following washing, cytofluorimetric analysis was conducted using a BD FACS Symphony A3 (BD Biosciences). Cells were sorted by scatter properties and separated for single cell analysis using side scatter width vs side scatter area. Antibody binding to cells was quantitated by measuring fluorescent emissions of excitation wavelength of 561 nm using a 586/15 nm filter. Data analysis was performed using FlowJo Software.

| binding result | Binder |
| --- | --- |
| no binding | B1 |
| no binding | B2 |
| no binding | B3 |
| no binding | B4 |

biological target: T4, siglec 12 expressed on HEK293 cells (UniProt Q96PQ1 19-595, limits assumed); test: as above
T4 construct: whole, on cells; also called Siglec-6 family member
Protocol: as §1

T4 sequence (Q96PQ1 19-595 limits assumed): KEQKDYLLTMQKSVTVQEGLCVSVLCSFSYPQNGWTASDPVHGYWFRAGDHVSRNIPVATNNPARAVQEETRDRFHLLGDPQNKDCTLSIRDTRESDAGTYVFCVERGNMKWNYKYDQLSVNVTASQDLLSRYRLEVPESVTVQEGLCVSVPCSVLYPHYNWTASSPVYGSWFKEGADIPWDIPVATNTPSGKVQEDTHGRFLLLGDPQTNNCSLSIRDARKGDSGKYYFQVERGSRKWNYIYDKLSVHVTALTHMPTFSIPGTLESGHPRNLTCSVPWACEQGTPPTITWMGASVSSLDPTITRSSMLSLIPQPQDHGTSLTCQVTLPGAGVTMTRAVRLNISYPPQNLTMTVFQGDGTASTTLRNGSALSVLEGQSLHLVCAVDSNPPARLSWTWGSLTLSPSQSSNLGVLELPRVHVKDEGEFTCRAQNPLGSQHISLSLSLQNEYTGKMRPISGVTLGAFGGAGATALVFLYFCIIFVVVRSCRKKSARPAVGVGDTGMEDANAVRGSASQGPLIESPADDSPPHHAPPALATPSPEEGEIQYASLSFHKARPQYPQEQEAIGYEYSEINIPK

| binding result | Binder |
| --- | --- |
| no binding | B1 |
| no binding | B2 |
| no binding | B3 |
| no binding | B4 |

biological target: T2, siglec 11 expressed on HEK293 cells; test: as above
Protocol: as §1

| binding result | Binder |
| --- | --- |
| no binding | B1 |
| no binding | B2 |
| no binding | B3 |
| no binding | B4 |

biological target: T3, siglec 2 expressed on HEK293 cells; test: as above
Protocol: as §1

| binding result | Binder |
| --- | --- |
| no binding | B1 |
| no binding | B2 |
| no binding | B3 |
| no binding | B4 |
